Measurements reported in US20240327530A1 (ICHNOS SCIENCES, published 2024).
Changes are numbered by the printed parent chain.

How the values were obtained:
[1] = target: T1, Recombinant cynomolgus monkey IL-1RAP-ECD(S21-E359)-avi-his protein (cynomolgus monkey, UniProt P59822 21-359 (rhesus entry)); test: SPR, IgG1 LALA captured by anti-human Fc, cyno IL-1RAP-avi-his as analyte, 1:1 fit
T1 construct: also called cyno IL-1RAP-ECD-Avi-His; recombinant cynomolgus monkey IL-1RAP-avi-his protein
T1 sequence: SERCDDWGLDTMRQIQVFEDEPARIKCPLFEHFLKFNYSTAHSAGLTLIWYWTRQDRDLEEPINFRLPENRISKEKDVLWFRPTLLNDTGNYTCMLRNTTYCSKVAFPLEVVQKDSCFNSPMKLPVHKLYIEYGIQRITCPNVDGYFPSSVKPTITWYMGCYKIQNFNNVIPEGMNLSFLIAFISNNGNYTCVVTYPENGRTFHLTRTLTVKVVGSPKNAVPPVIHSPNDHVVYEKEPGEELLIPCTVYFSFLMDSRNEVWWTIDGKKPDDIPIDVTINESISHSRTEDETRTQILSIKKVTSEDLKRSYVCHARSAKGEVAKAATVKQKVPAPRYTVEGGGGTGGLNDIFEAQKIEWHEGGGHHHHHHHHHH
Procedure: (§1) Surface plasmon resonance (SPR) was used to measure the binding affinities of the human IgG1 LALA molecules for human and cynomolgus monkey IL-1RAP. Affinities were measured on a BIACORE™ T200 instrument (BIACORE™, GE […]®) at 25° C. and analyzed with the BIACORE™ T200 Evaluation Software (v3.1). Measurements were performed on Series S CM5 sensor chips (BIACORE™ T200, BIACORE™, GE […]®, catalog no. BR100530) coupled with anti-human IgG Fc (BIACORE™, GE […]®, catalog no. BR100839) using a commercial amine coupling kit (BIACORE™, GE […]®, catalog no. BR100050). SPR measurements were performed with recombinant human IL-1RAP-avi-his protein produced in house (SEQ ID NO. 1) or recombinant cynomolgus monkey IL-1RAP-avi-his protein produced in house (SEQ ID NO. 2). The affinities to human and cynomolgus monkey IL-1RAP were assessed by immobilizing anti-IL-1RAP IgG1 LALA molecules and using IL-1RAP proteins as analyte. Around 150 RU of human IgG1 LALA were captured on fc2 of a Series S CM5 sensor chip coupled with anti-human IgG Fc. Recombinant human IL-1RAP-avi-his protein or recombinant cynomolgus monkey IL-1RAP-avi-his protein was injected in multi cycle kinetic at different concentrations ranging from 0.14 to 100 nM, in HBS-EP+ buffer (BIACORE™, GE […]®, catalog no. BR100669) at a flow rate of 30 μl/min for 3 min on fc1 and fc2 (fc1 being used as reference). Dissociation was monitored for 12 min. After each cycle, the surface was regenerated with 60 μl of regeneration solution provided with anti-human IgG Fc capture kit (BIACORE™, GE […]®, catalog no. BR100839). Experimental data were processed using the 1:1 Langmuir kinetic fitting model. Measurements included zero-concentration samples for referencing. Chi², U- and residual values were used to evaluate the quality of a fit between the experimental data and individual binding models.

[2] = target: T2, Recombinant human IL-1RAP-ECD(S21-E359)-avi-his protein (human, UniProt Q9NPH3 21-359); test: SPR, IgG1 LALA captured by anti-human Fc, human IL-1RAP-avi-his as analyte, 1:1 fit
T2 construct: Biotinylated where loaded on streptavidin; also called human IL-1RAP-ECD-Avi-His; recombinant human IL-1RAP-avi-his protein
T2 sequence: T1 sequence with F183L, P273T, T326K
Procedure: as §1

B1: Anti-IL-1RAP-C8-RecC-ES-IgG1LALA (antibody, V domains shown)
VH: QVQLVQSGAEVKKPGSSVKVSCKASGSPAEPYAIQWVRQAPGQGLEWMGYIIPSLGGYDYAQKFQGRVTITADESTSTAYMELSSLRSEDTAVYYCARGQTLYESGRQFDIWGQGTLVTVSS
VL: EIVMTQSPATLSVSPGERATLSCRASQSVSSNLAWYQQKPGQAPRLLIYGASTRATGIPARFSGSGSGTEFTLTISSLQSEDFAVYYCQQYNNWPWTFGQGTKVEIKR
notes: also called ISB 880-C8-recC-ES
In the case of B1, the Kd [1] is reported as 0.306 nM, the koff [1] is reported as 0.000212 s⁻¹ and the kon [1] is reported as 692000 M⁻¹ s⁻¹. It also gave a Kd [2] of 0.251 nM, a koff [2] of 0.000172 s⁻¹ and a kon [2] of 693000 M⁻¹ s⁻¹.
